Measurements: IntAct's records for PubMed 12591280

B1: Actin nucleation-promoting factor WAS (Homo sapiens), P42768 (parent)
chain: MSGGPMGGRPGGRGAPAVQQNIPSTLLQDHENQRLFEMLGRKCLTLATAVVQLYLALPPGAEHWTKEHCGAVCFVKDNPQKSYFIRLYGLQAGRLLWEQELYSQLVYSTPTPFFHTFAGDDCQAGLNFADEDEAQAFRALVQEKIQKRNQRQSGDRRQLPPPPTPANEERRGGLPPLPLHPGGDQGGPPVGPLSLGLATVDIQNPDITSSRYRGLPAPGPSPADKKRSGKKKISKADIGAPSGFKHVSHVGWDPQNGFDVNNLDPDLRSLFSRAGISEAQLTDAETSKLIYDFIEDQGGLEAVRQEMRRQEPLPPPPPPSRGGNQLPRPPIVGGNKGRSGPLPPVPLGIAPPPPTPRGPPPPGRGGPPPPPPPATGRSGPLPPPPPGAGGPPMPPPPPPPPPPPSSGNGPAPPPLPPALVPAGGLAPGGGRGALLDQIRQGIQLNKTPGAPESSALQPPPQSSEGLVGALMHVMQKRSRAIHSSDEGEDQAGDEDEDDEWDD

Columns and labels:
[1] = variants of: B1; conditions: with wipf1_human WIPF1, O43516
[2] = variants of: B1; conditions: with wipf1_human WIPF1, O43516; remark: listed apart in the source

Sequence of wipf1_human WIPF1, O43516 (O43516 whole entry): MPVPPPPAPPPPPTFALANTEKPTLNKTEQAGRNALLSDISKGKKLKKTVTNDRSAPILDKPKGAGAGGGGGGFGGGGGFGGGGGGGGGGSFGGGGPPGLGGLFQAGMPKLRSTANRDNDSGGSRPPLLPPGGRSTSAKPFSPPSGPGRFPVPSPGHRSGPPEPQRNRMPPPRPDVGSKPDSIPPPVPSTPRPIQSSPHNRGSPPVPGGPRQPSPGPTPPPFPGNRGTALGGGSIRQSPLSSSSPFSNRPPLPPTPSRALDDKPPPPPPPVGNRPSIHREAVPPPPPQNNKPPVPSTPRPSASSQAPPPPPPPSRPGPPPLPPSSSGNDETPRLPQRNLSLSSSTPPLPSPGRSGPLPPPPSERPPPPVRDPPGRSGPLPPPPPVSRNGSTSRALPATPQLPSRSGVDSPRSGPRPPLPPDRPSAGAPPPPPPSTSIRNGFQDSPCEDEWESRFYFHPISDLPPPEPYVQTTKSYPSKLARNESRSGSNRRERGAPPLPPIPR

effect of a mutation on the interaction [1] | effect of a mutation on the interaction [2] | Variant
with no effect | increasing interaction strength | R138E
disrupting interaction strength | decreasing interaction strength | R138P

Continued, variant first:

Variant | effect of a mutation on the interaction [1] | effect of a mutation on the interaction [2]
R138A | with no effect | increasing interaction strength
A134T | disrupting interaction strength | 
